Experimental findings from publication PMC6018903 are described below.

This test concerns the target OsSEC3A_C (amino acids 521-888)-NLuc (rice (Oryza sativa)). Description: split reporter (BiFC, NanoBiT); split firefly luciferase complementation, NLuc and CLuc fusions under the 35S promoter co-expressed in N. benthamiana leaves, read 3 d after infiltration.

CLuc-OsSNAP32 (natural protein) displayed a fold LUC activity over the negative vector controls of 15 fold.
